Experimental findings from article doi:10.1101/771139 (bioRxiv, 2020) are described below.

This series deals with the molecule itself. The experiment in a line: […].

B1: Bacillus subtilis SepF (natural protein)
chain: MSMKNKLKNFFSMEDEEYEYEYIETERESHEEHEQKEKPAYNGNKPAGKQNVVSLQSVQKSSKVVLSEPRVYAEAQEIADHLKNRRAVVVNLQRIQHDQAKRIVDFLSGTVYAIGGDIQRIGSDIFLCTPDNVDVSGTISELISEDEHQRW
B1: the binding result is “binds”.
